Biological target: recombinant SARS-CoV-2 spike protein (SARS-CoV-2) (UniProt P0DTC2)
Assay: SPR

Row | Substance | Kd [nM]
1 | HMGB1-B box (aa 89–162), 6x His-tagged (from UniProt P09429 89-162) (domain or fragment) | 1020
2 | acidic C-tail-deleted HMGB1 (HMGB1-ΔC, aa 1–186), 6x His-tagged (from UniProt P09429 1-186) (domain or fragment) | 1380
3 | HMGB1-A box (aa 1–79), 6x His-tagged (from UniProt P09429 1-79) (domain or fragment) | 6100
4 | full-length HMGB1 (HMGB1-WT), 6x His-tagged (from UniProt P09429 1-215) (natural protein) | 3550
